Results on one molecule are retold here after article PMC4045705 (Chembiochem : a European journal of chemical biology, 2014).

The target in this test is phosphorylated extracellular regulated kinase 2 (pERK2) (UniProt P28482 1-360, phosphorylated (sites not given)). Kind of test: SPR. On the technique in general: In SPR one partner is held on a chip, and binding of the other changes the refractive index at the surface.
Sequence of phosphorylated extracellular regulated kinase 2 (pERK2) (P28482 whole entry): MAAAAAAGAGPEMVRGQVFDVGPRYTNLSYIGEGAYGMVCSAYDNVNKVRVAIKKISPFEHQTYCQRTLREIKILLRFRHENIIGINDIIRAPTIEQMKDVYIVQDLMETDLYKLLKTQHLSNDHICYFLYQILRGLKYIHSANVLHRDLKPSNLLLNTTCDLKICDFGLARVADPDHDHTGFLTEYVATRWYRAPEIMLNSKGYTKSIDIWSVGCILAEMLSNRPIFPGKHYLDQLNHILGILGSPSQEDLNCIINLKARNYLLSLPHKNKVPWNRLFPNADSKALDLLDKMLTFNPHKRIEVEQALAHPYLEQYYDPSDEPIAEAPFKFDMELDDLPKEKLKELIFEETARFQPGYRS

B1: synthetic DARPin pE59 (designed binder)
chain: GGGGGSDLGKKLLEAARAGQDDEVRILXANGADVNALDEDGLTPLHLAAQLGHLEIVEVLLKYGADVNAEDNFGITPLHLAAIRGHLEIVEVLLKHGADVNAQDKFGKTAFDISIDNGNEDLAEILQKLN
modifications: norleucine (Nle) at 28 in place of Met; C-terminal carboxamide (CONH2) at 130Asn
Turning to B1, binding was put at a Kd of 190 nM.
